Assay [1] has as its system DIO (Diet-Induced Obesity; AKR/J mice fed a high fat diet) mice. Nature of the assay: 24 h food intake in DIO mice over the 21 day study. The assay is classed as in vivo, mouse. How it is done: FIG. 2 is a graph of 24 h food intake monitored for the duration of the study for the DIO mice treated as described in the legend of FIG. 1.
(§1) A study was conducted to determine the effect of the combination of phentermine and Axokine™ on body weight and food intake in a mouse model of obesity. 30 DIO (Diet-Induced Obesity; AKR/J mice fed a high fat diet) mice were divided into 5 equal groups (n=6 per group). Four groups were treated daily in the afternoon starting on Day 0 as follows: Group A (control): 0.9% NaCl (4 μl/g, intraperitoneal (IP) injection) and placebo (4 μl/g subcutaneous (SC) injection); Group B: Axokine™ (0.03 mg/kg, SC); Group C: phentermine (10.0 mg/kg, IP); Group D: Axokine™ (0.03 mg/kg, SC)+phentermine (10.0 mg/kg, IP). The […] group, Group E was pair fed to Group B; each animal in this group received the average amount of food the Axokine™ treated animals consumed the previous day. This treatment paradigm continued until Day 21 (last injection on Day 20). […] Animals who were pair-fed to the Axokine™ group, lost weight at a rate similar to that of the Axokine™ group up to Day 11 of the study. After this time, their weight loss reached a plateau.
After the second day of the study, control animals resumed their typical eating pattern, consuming approximately 4 g of food a day. Animals who received Axokine™ or were pair-fed, maintained this decreased food intake of about 2.75 g per day until Day 12 when they began to consume more food (3.5 g at the end of the study).

For assay [2] the test system is unchanged. The assay is described as follows: Effect on body weight in a mouse model of obesity (DIO mice), daily treatment Day 0 to Day 21. The assay is classed as in vivo. Conditions: Axokine 0.03 mg/kg SC, phentermine 10.0 mg/kg IP; for loss of starting body weight: after 21 days of daily treatment, control lost 2%; for body weight change in words (FIG. 1): daily administration. How it is done:
FIG. 1 is a graph of the change in body weight as a percentage of weight at Day 0 from Day 0 to Day 21 food intake (24 hours) over time (Days —1 to 21) for diet-induced obese (DIO) mice treated with 0.9% NaCl (4 μl/g, intraperitoneal (IP) injection) and placebo (4 μl/g subcutaneous (SC) injection; Group A: Control ═X); Axokine™ (0.03 mg/kg, SC; Group B=⋄); phentermine (10.0 mg/kg, IP; Group C=□); Axokine™ (0.03 mg/kg, SC) and phentermine (10.0 mg/kg, IP; Group D=□); and pair fed to group B=⋄).
as §1

As for `CC(C)(N)Cc1ccccc1` [phentermine, reference compound], the “food intake in words (FIG. 2)” value in assay [1] (daily treatment, Axokine 0.03 mg/kg SC, phentermine 10.0 mg/kg IP) was “decreased food intake relative to control”. In assay [2], the “loss of starting body weight” value was “about 15%” and the “body weight change in words (FIG. 1)” value was “significant decrease in body weight relative to control animals”.

B1: Axokine™: modified ciliary neurotrophic factor (CNTF) molecule, hCNTF C17A Q63R Δ15 (SEQ ID NO:3 or SEQ ID NO:4) (protein)
chain: MAFTEHSPLTPHRRDLASRSIWLARKIRSDLTALTESYVKHQGLNKNINLDSADGMPVASTDRWSELTEAERLQENLQAYRTFHVLLARLLEDQQVHFTPTEGDFHQAIHTLLLQVAAFAYQIEELMILLEYKIPRNEADGMPINVGDGGLFEKKLWGLKVLQELSQWTVRSIHDLRFISSHQTG
For B1, the “24 h food intake at the end of the study” value in assay [1] (Axokine 0.03 mg/kg SC daily, end of the study (Day 21)) amounted to 3.5 g. For the same molecule, the “24 h food intake” value in assay [1] (Axokine 0.03 mg/kg SC daily, from Day 2 until Day 12, control approximately 4 g a day) was “about 2.75 g per day”. Moreover, in assay [2], the “loss of starting body weight” value is on record as “approximately 19%” and the “body weight change in words (FIG. 1)” value is “significant decrease in body weight relative to control animals”.

The values above are taken from patent US20060058224A1, “Methods of treating obesity with combination therapeutics” (priority 2004, published 2006).
